In the supplement of paper PMC9233669:
Variants at the floor of the assay were thinned out.

Assays:
biotinyl-Leu-oxazolone = assay: self-aminoacylation, catalytic enhancement (BLO) (fold over background); higher = more active; k-Seq, kA / k0A0; sequences stand for … in GGGAAUGGAUCCACAUCUACGAAUUC…UUCACUGCAGACUUGACGAAGCUG
Procedure, shortened: (§1)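 Mutagenized RNA pools with a 21-nt variable region (0.43 μM) reacted with each biotinyl-aminoacyl-oxazolone at 2–1250 μM. Reactions ran in 50 μL HEPES/NaCl/KCl/MgCl2/CaCl2 buffer with 5% acetonitrile, pH 6.9–7.0, for 90 minutes at room temperature. Streptavidin-captured RNA was quantified by triplicate qPCR and Illumina sequencing, and per-sequence fraction reacted was fit to a pseudo-first-order model with 1000 bootstraps. Catalytic enhancement is median kA divided by the uncatalyzed rate, the low-activity peak of a bimodal Gaussian fit.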

biotinyl-Met-oxazolone = assay: self-aminoacylation, catalytic enhancement (BMO) (fold over background); higher = more active; k-Seq, kA / k0A0; sequences stand for … in GGGAAUGGAUCCACAUCUACGAAUUC…UUCACUGCAGACUUGACGAAGCUG
Procedure, shortened: as §1

biotinyl-Trp-oxazolone = assay: self-aminoacylation, catalytic enhancement (BWO) (fold over background); higher = more active; k-Seq, kA / k0A0; sequences stand for … in GGGAAUGGAUCCACAUCUACGAAUUC…UUCACUGCAGACUUGACGAAGCUG
Procedure, shortened: as §1

biotinyl-Phe-oxazolone = assay: self-aminoacylation, catalytic enhancement (BFO) (fold over background); higher = more active; k-Seq, kA / k0A0; sequences stand for … in GGGAAUGGAUCCACAUCUACGAAUUC…UUCACUGCAGACUUGACGAAGCUG
Procedure, shortened: as §1

With “AUUACCCUGGUUAUCAAGUGA [Fam2.1 aminoacylation ribozyme variant]” the self-aminoacylation (biotinyl-Leu-oxazolone) was 2.53, the self-aminoacylation (biotinyl-Met-oxazolone) was 2.67 and the self-aminoacylation (biotinyl-Trp-oxazolone) was 3.4. It also gave a self-aminoacylation (biotinyl-Phe-oxazolone) of 4.14.

“AUCACCCUGGUCAUCGAGUUA [Fam2.1 aminoacylation ribozyme variant]” was tested, and the self-aminoacylation (biotinyl-Leu-oxazolone) was 2.83, the self-aminoacylation (biotinyl-Met-oxazolone) was 2.93 and the self-aminoacylation (biotinyl-Trp-oxazolone) was 2.62. For the same sequence, the self-aminoacylation (biotinyl-Phe-oxazolone) was 4.31.

“AUUAGCCUGCUCAUCGAGUGA [Fam2.1 aminoacylation ribozyme variant]” gave a self-aminoacylation (biotinyl-Leu-oxazolone) of 2.92, a self-aminoacylation (biotinyl-Met-oxazolone) of 3.42 and a self-aminoacylation (biotinyl-Trp-oxazolone) of 4.65. For the same sequence, the self-aminoacylation (biotinyl-Phe-oxazolone) was 12.2.

Work on “AUUCACCUAGCUUAUCGGGUG [Fam2.2 aminoacylation ribozyme variant]” yielded a self-aminoacylation (biotinyl-Met-oxazolone) of 2.12, a self-aminoacylation (biotinyl-Trp-oxazolone) of 2.2 and a self-aminoacylation (biotinyl-Phe-oxazolone) of 4.71.

In the case of “AUUCACAUAGGUCGUCGGGUG [Fam2.2 aminoacylation ribozyme variant]”, the self-aminoacylation (biotinyl-Leu-oxazolone) is reported as 2.07 and the self-aminoacylation (biotinyl-Phe-oxazolone) is reported as 7.92.

Sequence “AAGUUUGCUAAUAGUCGAAAA [Fam3.1 aminoacylation ribozyme variant]” has a self-aminoacylation (biotinyl-Met-oxazolone) of 2.08.

“CGACUUCAAGCAAUCGGUCUG [Fam1A.1 aminoacylation ribozyme variant]” was tested, and the self-aminoacylation (biotinyl-Leu-oxazolone) was 2.13, the self-aminoacylation (biotinyl-Trp-oxazolone) was 20.1 and the self-aminoacylation (biotinyl-Phe-oxazolone) was 26.6.

Work on “UAGUUUGCUAAUAGUCGCGAG [Fam3.1 aminoacylation ribozyme variant]” yielded a self-aminoacylation (biotinyl-Leu-oxazolone) of 2.08, a self-aminoacylation (biotinyl-Trp-oxazolone) of 2.02 and a self-aminoacylation (biotinyl-Phe-oxazolone) of 2.58.

Work on “AUCACCCUGGUCAUCGAGUGC [Fam2.1 aminoacylation ribozyme variant]” yielded a self-aminoacylation (biotinyl-Leu-oxazolone) of 2.56, a self-aminoacylation (biotinyl-Met-oxazolone) of 3.26 and a self-aminoacylation (biotinyl-Trp-oxazolone) of 2.4. For the same sequence, the self-aminoacylation (biotinyl-Phe-oxazolone) was 4.47.

Sequence “AUUCCCCUGGUCAUCAAGUGA [Fam2.1 aminoacylation ribozyme variant]” has a self-aminoacylation (biotinyl-Met-oxazolone) of 2.36, a self-aminoacylation (biotinyl-Trp-oxazolone) of 2.34 and a self-aminoacylation (biotinyl-Phe-oxazolone) of 3.87.

“AUUCACCUAGUUCAUCGGGGG [Fam2.2 aminoacylation ribozyme variant]” gave a self-aminoacylation (biotinyl-Leu-oxazolone) of 2.23 and a self-aminoacylation (biotinyl-Phe-oxazolone) of 6.17.

Sequence “AUUCACCUAGGUCAGCGGCUG [Fam2.2 aminoacylation ribozyme variant]” has a self-aminoacylation (biotinyl-Leu-oxazolone) of 3.16, a self-aminoacylation (biotinyl-Met-oxazolone) of 2.5 and a self-aminoacylation (biotinyl-Phe-oxazolone) of 8.56.

“AUUCAUCUAGGUCAUCAGGUG [Fam2.2 aminoacylation ribozyme variant]” gave a self-aminoacylation (biotinyl-Met-oxazolone) of 2.23, a self-aminoacylation (biotinyl-Trp-oxazolone) of 2.07 and a self-aminoacylation (biotinyl-Phe-oxazolone) of 2.89.

“AUUCAUCUAGCUCAUCGGGUG [Fam2.2 aminoacylation ribozyme variant]” gave a self-aminoacylation (biotinyl-Met-oxazolone) of 2.12 and a self-aminoacylation (biotinyl-Trp-oxazolone) of 2.3.

“CCCCACUUCAAUCAAUCGGUC [Fam1B.1 aminoacylation ribozyme variant]” gave a self-aminoacylation (biotinyl-Leu-oxazolone) of 2.28, a self-aminoacylation (biotinyl-Trp-oxazolone) of 31 and a self-aminoacylation (biotinyl-Phe-oxazolone) of 37.1.

In the case of “CCACUUCAAACAAUCGGUCUU [Fam1A.1 aminoacylation ribozyme variant]”, the self-aminoacylation (biotinyl-Leu-oxazolone) is reported as 2.11, the self-aminoacylation (biotinyl-Trp-oxazolone) is reported as 25.2 and the self-aminoacylation (biotinyl-Phe-oxazolone) is reported as 40.9.

“AAGUUAGCUAAAAGUCGCAAG [Fam3.1 aminoacylation ribozyme variant]” showed a self-aminoacylation (biotinyl-Leu-oxazolone) of 2.01 and a self-aminoacylation (biotinyl-Phe-oxazolone) of 2.41.

“CACCUUCAAACAAUCGGUCUG [Fam1A.1 aminoacylation ribozyme variant]” showed a self-aminoacylation (biotinyl-Leu-oxazolone) of 2.61, a self-aminoacylation (biotinyl-Trp-oxazolone) of 43.9 and a self-aminoacylation (biotinyl-Phe-oxazolone) of 98.1.

“ACUACCCUGGUCAUCGAGAGA [Fam2.1 aminoacylation ribozyme variant]” showed a self-aminoacylation (biotinyl-Met-oxazolone) of 2.02.

“AAGUUUGCCAAUAGUCGCAAA [Fam3.1 aminoacylation ribozyme variant]” gave a self-aminoacylation (biotinyl-Met-oxazolone) of 2.37 and a self-aminoacylation (biotinyl-Phe-oxazolone) of 2.47.

“ACCUUUGCUAAUAGUCGCAAG [Fam3.1 aminoacylation ribozyme variant]” showed a self-aminoacylation (biotinyl-Leu-oxazolone) of 2.31, a self-aminoacylation (biotinyl-Trp-oxazolone) of 2.06 and a self-aminoacylation (biotinyl-Phe-oxazolone) of 2.02.

For “AUUCACUUAGGUCAUAGGGUG [Fam2.2 aminoacylation ribozyme variant]”, the self-aminoacylation (biotinyl-Leu-oxazolone) was 2.08 and the self-aminoacylation (biotinyl-Phe-oxazolone) was 3.24.

“AAGUUUGCCAAUAGUCGCAAU [Fam3.1 aminoacylation ribozyme variant]” showed a self-aminoacylation (biotinyl-Met-oxazolone) of 2.07, a self-aminoacylation (biotinyl-Trp-oxazolone) of 3.5 and a self-aminoacylation (biotinyl-Phe-oxazolone) of 9.89.

“AAGUCUGCUAACAGUCGCAAG [Fam3.1 aminoacylation ribozyme variant]” showed a self-aminoacylation (biotinyl-Met-oxazolone) of 2.09, a self-aminoacylation (biotinyl-Trp-oxazolone) of 7.03 and a self-aminoacylation (biotinyl-Phe-oxazolone) of 28.4.

For “CGACUUCAAACAAUCGGUCUG [Fam1A.1 aminoacylation ribozyme variant]”, the self-aminoacylation (biotinyl-Leu-oxazolone) was 2.66, the self-aminoacylation (biotinyl-Trp-oxazolone) was 44.4 and the self-aminoacylation (biotinyl-Phe-oxazolone) was 102.

In the case of “CUUCACCUAGGUCAACGGGUG [Fam2.2 aminoacylation ribozyme variant]”, the self-aminoacylation (biotinyl-Leu-oxazolone) is reported as 2.48, the self-aminoacylation (biotinyl-Met-oxazolone) is reported as 2.28 and the self-aminoacylation (biotinyl-Phe-oxazolone) is reported as 9.32.

Work on “AUUACCCUGGUCAUCGUGCGA [Fam2.1 aminoacylation ribozyme variant]” yielded a self-aminoacylation (biotinyl-Leu-oxazolone) of 2.14, a self-aminoacylation (biotinyl-Trp-oxazolone) of 2.28 and a self-aminoacylation (biotinyl-Phe-oxazolone) of 9.74.

In the case of “AUUACUCUGGUCAUCGAGUGG [Fam2.1 aminoacylation ribozyme variant]”, the self-aminoacylation (biotinyl-Leu-oxazolone) is reported as 2.42 and the self-aminoacylation (biotinyl-Met-oxazolone) is reported as 2.16.

Work on “UAGUUUGUUAAUAGUCGCAAG [Fam3.1 aminoacylation ribozyme variant]” yielded a self-aminoacylation (biotinyl-Leu-oxazolone) of 2.05 and a self-aminoacylation (biotinyl-Phe-oxazolone) of 3.23.

“AAGUCUGCUAAUAGUCGCAAG [Fam3.1 aminoacylation ribozyme variant]” gave a self-aminoacylation (biotinyl-Met-oxazolone) of 2.44, a self-aminoacylation (biotinyl-Trp-oxazolone) of 9.75 and a self-aminoacylation (biotinyl-Phe-oxazolone) of 51.8.

“CAACUUCAAACAAUCGGUCUG [Fam1A.1 aminoacylation ribozyme variant]” showed a self-aminoacylation (biotinyl-Leu-oxazolone) of 2.61, a self-aminoacylation (biotinyl-Trp-oxazolone) of 44.8 and a self-aminoacylation (biotinyl-Phe-oxazolone) of 97.7.

“AUUACCCUGGUCGUCGAGCGA [Fam2.1 aminoacylation ribozyme variant]” gave a self-aminoacylation (biotinyl-Leu-oxazolone) of 2.17 and a self-aminoacylation (biotinyl-Phe-oxazolone) of 3.35.

Sequence “CUACUUCAACCAAUCGGCCUG [Fam1A.1 aminoacylation ribozyme variant]” has a self-aminoacylation (biotinyl-Leu-oxazolone) of 2.86, a self-aminoacylation (biotinyl-Trp-oxazolone) of 42.2 and a self-aminoacylation (biotinyl-Phe-oxazolone) of 47.8.

In the case of “AAGUUGGCUAAUUGUCGCAAG [Fam3.1 aminoacylation ribozyme variant]”, the self-aminoacylation (biotinyl-Leu-oxazolone) is reported as 2.41, the self-aminoacylation (biotinyl-Trp-oxazolone) is reported as 2.71 and the self-aminoacylation (biotinyl-Phe-oxazolone) is reported as 2.94.

In the case of “CUAGUUCAAACAAUCGGUCUG [Fam1A.1 aminoacylation ribozyme variant]”, the self-aminoacylation (biotinyl-Trp-oxazolone) is reported as 6.47 and the self-aminoacylation (biotinyl-Phe-oxazolone) is reported as 11.

“CAGUUUGCUAAUAGUCGCAUG [Fam3.1 aminoacylation ribozyme variant]” gave a self-aminoacylation (biotinyl-Leu-oxazolone) of 2.08, a self-aminoacylation (biotinyl-Trp-oxazolone) of 2.07 and a self-aminoacylation (biotinyl-Phe-oxazolone) of 2.84.

Work on “AAAUUUGCUAAUAGUCGCAAG [Fam3.1 aminoacylation ribozyme variant]” yielded a self-aminoacylation (biotinyl-Trp-oxazolone) of 2.13 and a self-aminoacylation (biotinyl-Phe-oxazolone) of 4.

“CCACUUCAAAAAAUCGGUCUG [Fam1A.1 aminoacylation ribozyme variant]” was tested, and the self-aminoacylation (biotinyl-Trp-oxazolone) was 12.1 and the self-aminoacylation (biotinyl-Phe-oxazolone) was 15.2.

“CUACUUACAACAAUCGGUCUG [Fam1A.1 aminoacylation ribozyme variant]” gave a self-aminoacylation (biotinyl-Trp-oxazolone) of 2.34 and a self-aminoacylation (biotinyl-Phe-oxazolone) of 3.29.

Work on “CUACUUCAAACAAUCUCUCUG [Fam1A.1 aminoacylation ribozyme variant]” yielded a self-aminoacylation (biotinyl-Trp-oxazolone) of 4.21 and a self-aminoacylation (biotinyl-Phe-oxazolone) of 10.1.

“CUUCUUCAAACAAUCGGUCUA [Fam1A.1 aminoacylation ribozyme variant]” was tested, and the self-aminoacylation (biotinyl-Trp-oxazolone) was 4.8 and the self-aminoacylation (biotinyl-Phe-oxazolone) was 11.4.

“AAGUCUACUAAUAGUCGCAAG [Fam3.1 aminoacylation ribozyme variant]” was tested, and the self-aminoacylation (biotinyl-Trp-oxazolone) was 2.11 and the self-aminoacylation (biotinyl-Phe-oxazolone) was 3.17.

In the case of “AGUACCCUGGUCAUCGAGUAA [Fam2.1 aminoacylation ribozyme variant]”, the self-aminoacylation (biotinyl-Leu-oxazolone) is reported as 2.52, the self-aminoacylation (biotinyl-Met-oxazolone) is reported as 2.71 and the self-aminoacylation (biotinyl-Phe-oxazolone) is reported as 3.84.

Work on “CCACACUUCAGCCAAUCGGUC [Fam1B.1 aminoacylation ribozyme variant]” yielded a self-aminoacylation (biotinyl-Leu-oxazolone) of 2.27 and a self-aminoacylation (biotinyl-Trp-oxazolone) of 2.11.
